Laboratory results taken from the supplement of paper PMC11246515.
± gives the standard deviation of the averaged measurements.

Assay: total protein half-life in vivo (active degradation + dilution); higher = more stable protein
[1] = wild type E. coli NCM3722, growth: C-lim chemostat, doubling time 3 h
[2] = wild type E. coli NCM3722, growth: C-lim chemostat, doubling time 6 h
[3] = wild type E. coli NCM3722, growth: C-lim chemostat, doubling time 12 h
[4] = E. coli NCM3722 delta-clpP delta-lon delta-hslV, growth: N-lim chemostat, doubling time 6 h
[5] = E. coli NCM3722 delta-clpP, growth: N-lim chemostat, doubling time 6 h
[6] = E. coli NCM3722 delta-hslV, growth: N-lim chemostat, doubling time 6 h
[7] = E. coli NCM3722 delta-lon, growth: N-lim chemostat, doubling time 6 h
[8] = E. coli NCM3722 delta-smpB, growth: N-lim chemostat, doubling time 6 h
[9] = wild type E. coli NCM3722, growth: N-lim chemostat, doubling time 6 h
[10] = wild type E. coli NCM3722, growth: N-lim chemostat, doubling time 12 h
[11] = wild type E. coli NCM3722, growth: P-lim chemostat, doubling time 6 h
[12] = wild type E. coli NCM3722, growth: P-lim chemostat, doubling time 12 h

MAGWHLDTKMAQDIVARTMRIIDTNINVMDARGRIIGSGDRERIGELHEGALLVLSQGRVVDIDDAVARHLHGVRQGINLPLRLEGEIVGVIGLTGEPENLRKYGELVCMTAEMMLEQSRLMHLLAQDSRLREELVMNLIQAEENTPALTEWAQRLGIDLNQPRVVAIVEVDSGQLGVDSAMAELQQLQNALTTPERNNLVAIVSLTEMVVLKPALNSFGRWDAEDHRKRVEQLITRMKEYGQLRFRVSLGNYFTGPGSIARSYRTAKTTMVVGKQRMPESRCYFYQDLMLPVLLDSLRGDWQANELARPLARLKTMDNNGLLRRTLAAWFRHNVQPLATSKALFIHRNTLEYRLNRISELTGLDLGNFDDRLLLYVALQLDEER
total protein half-life in vivo [1]: 2.67 ± 0.12 h | total protein half-life in vivo [2]: 6.76 h | total protein half-life in vivo [3]: 10.2 ± 3 h

MAHQLKLLKDDFFASDQQAVAVADRYPQDVFAEHTHDFCELVIVWRGNGLHVLNDRPYRITRGDLFYIHADDKHSYASVNDLVLQNIIYCPERLKLNLDWQGAIPGFNASAGQPHWRLGSMGMAQARQVIGQLEHESSQHVPFANEMAELLFGQLVMLLNRHRYTSDSLPPTSSETLLDKLITRLAASLKSPFALDKFCDEASCSERVLRQQFRQQTGMTINQYLRQVRVCHAQYLLQHSRLLISDISTECGFEDSNYFSVVFTRETGMTPSQWRHLNSQKD
total protein half-life in vivo [1]: 1.63 h

MAIEQTAITRATFDEVILPIYAPAEFIPVKGQGSRIWDQQGKEYVDFAGGIAVTALGHCHPALVNALKTQGETLWHISNVFTNEPALRLGRKLIEATFAERVVFMNSGTEANETAFKLARHYACVRHSPFKTKIIAFHNAFHGRSLFTVSVGGQPKYSDGFGPKPADIIHVPFNDLHAVKAVMDDHTCAVVVEPIQGEGGVTAATPEFLQGLRELCDQHQALLVFDEVQCGMGRTGDLFAYMHYGVTPDILTSAKALGGGFPISAMLTTAEIASAFHPGSHGSTYGGNPLACAVAGAAFDIINTPEVLEGIQAKRQRFVDHLQKIDQQYDVFSDIRGMGLLIGAELKPQYKGRARDFLYAGAEAGVMVLNAGPDVMRFAPSLVVEDADIDEGMQRFAHAVAKVVGA
total protein half-life in vivo [4]: 5.24 ± 0.26 h | total protein half-life in vivo [5]: 4.41 ± 0.43 h | total protein half-life in vivo [6]: 4.47 ± 0.0086 h | total protein half-life in vivo [7]: 4.76 ± 0.3 h | total protein half-life in vivo [8]: 4.4 ± 0.099 h | total protein half-life in vivo [1]: 3.53 ± 0.35 h | total protein half-life in vivo [2]: 6.1 ± 0.17 h | total protein half-life in vivo [3]: 9.18 ± 0.29 h | total protein half-life in vivo [9]: 4.42 ± 0.3 h | total protein half-life in vivo [10]: 7.08 ± 0.24 h | total protein half-life in vivo [11]: 5.71 ± 0.09 h | total protein half-life in vivo [12]: 11.36 ± 0.11 h

MAIHNRAGQPAQQSDLINVAQLTAQYYVLKPEAGNAEHAVKFGTSGHRGSAARHSFNEPHILAIAQAIAEERAKNGITGPCYVGKDTHALSEPAFISVLEVLAANGVDVIVQENNGFTPTPAVSNAILVHNKKGGPLADGIVITPSHNPPEDGGIKYNPPNGGPADTNVTKVVEDRANALLADGLKGVKRISLDEAMASGHVKEQDLVQPFVEGLADIVDMAAIQKAGLTLGVDPLGGSGIEYWKRIGEYYNLNLTIVNDQVDQTFRFMHLDKDGAIRMDCSSECAMAGLLALRDKFDLAFANDPDYDRHGIVTPAGLMNPNHYLAVAINYLFQHRPQWGKDVAVGKTLVSSAMIDRVVNDLGRKLVEVPVGFKWFVDGLFDGSFGFGGEESAGASFLRFDGTPWSTDKDGIIMCLLAAEITAVTGKNPQEHYNELAKRFGAPSYNRLQAAATSAQKAALSKLSPEMVSASTLAGDPITARLTAAPGNGASIGGLKVMTDNGWFAARPSGTEDAYKIYCESFLGEEHRKQIEKEAVEIVSEVLKNA
total protein half-life in vivo [4]: 5.51 ± 0.17 h | total protein half-life in vivo [5]: 5.19 ± 0.29 h | total protein half-life in vivo [6]: 5.82 ± 0.08 h | total protein half-life in vivo [7]: 5.31 ± 0.31 h | total protein half-life in vivo [8]: 5.64 ± 0.31 h | total protein half-life in vivo [1]: 2.98 ± 0.16 h | total protein half-life in vivo [3]: 9.719 ± 0.083 h | total protein half-life in vivo [9]: 5.2 ± 0.099 h | total protein half-life in vivo [10]: 9.34 ± 0.22 h | total protein half-life in vivo [11]: 5.905 ± 0.033 h | total protein half-life in vivo [12]: 11.6 ± 0.12 h

MAIIPKNYARLESGYREKALKIYPWVCGRCSREFVYSNLRELTVHHIDHDHTNNPEDGSNWELLCLYCHDHEHSKYTEADQYGTTVIAGEDAQKDVGEAKYNPFADLKAMMNKKK [P0AAQ2]
total protein half-life in vivo [4]: 4.15 ± 1.2 h | total protein half-life in vivo [5]: 1.71 ± 0.098 h | total protein half-life in vivo [6]: 1.5 ± 0.031 h | total protein half-life in vivo [7]: 2.74 ± 0.48 h | total protein half-life in vivo [8]: 1.63 ± 0.71 h | total protein half-life in vivo [1]: 0.968 ± 0.29 h | total protein half-life in vivo [2]: 1.73 h | total protein half-life in vivo [3]: 2.42 h | total protein half-life in vivo [9]: 1.97 h | total protein half-life in vivo [10]: 1.54 h | total protein half-life in vivo [11]: 1.18 h | total protein half-life in vivo [12]: 3.1 ± 0.97 h

MAIKLEIKNLYKIFGEHPQRAFKYIEQGLSKEQILEKTGLSLGVKDASLAIEEGEIFVIMGLSGSGKSTMVRLLNRLIEPTRGQVLIDGVDIAKISDAELREVRRKKIAMVFQSFALMPHMTVLDNTAFGMELAGINAEERREKALDALRQVGLENYAHSYPDELSGGMRQRVGLARALAINPDILLMDEAFSALDPLIRTEMQDELVKLQAKHQRTIVFISHDLDEAMRIGDRIAIMQNGEVVQVGTPDEILNNPANDYVRTFFRGVDISQVFSAKDIARRTPNGLIRKTPGFGPRSALKLLQDEDREYGYVIERGNKFVGAVSIDSLKTALTQQQGLDAALIDAPLAVDAQTPLSELLSHVGQAPCAVPVVDEDQQYVGIISKGMLLRALDREGVNNG
total protein half-life in vivo [4]: 5.58 ± 1.6 h | total protein half-life in vivo [1]: 1.16 h | total protein half-life in vivo [9]: 5.28 h

MAIKLIAIDMDGTLLLPDHTISPAVKNAIAAARARGVNVVLTTGRPYAGVHNYLKELHMEQPGDYCITYNGALVQKAADGSTVAQTALSYDDYRFLEKLSREVGSHFHALDRTTLYTANRDISYYTVHESFVATIPLVFCEAEKMDPNTQFLKVMMIDEPAILDQAIARIPQEVKEKYTVLKSAPYFLEILDKRVNKGTGVKSLADVLGIKPEEIMAIGDQENDIAMIEYAGVGVAMDNAIPSVKEVANFVTKSNLEDGVAFAIEKYVLN [P0A8Y5]
total protein half-life in vivo [4]: 4 ± 0.43 h | total protein half-life in vivo [5]: 3.61 ± 0.23 h | total protein half-life in vivo [6]: 3.55 ± 0.38 h | total protein half-life in vivo [7]: 3.69 ± 0.1 h | total protein half-life in vivo [8]: 3.408 ± 0.021 h | total protein half-life in vivo [1]: 3.08 ± 0.22 h | total protein half-life in vivo [2]: 5.71 ± 0.32 h | total protein half-life in vivo [3]: 9.92 ± 0.27 h | total protein half-life in vivo [9]: 3.52 ± 0.2 h | total protein half-life in vivo [10]: 5.28 ± 0.29 h | total protein half-life in vivo [11]: 5.06 ± 0.13 h | total protein half-life in vivo [12]: 11.4 ± 0.92 h

MAIPAFGLGTFRLKDDVVISSVITALELGYRAIDTAQIYDNEAAVGQAIAESGVPRHELYITTKIWIENLSKDKLIPSLKESLQKLRTDYVDLTLIHWPSPNDEVSVEEFMQALLEAKKQGLTREIGISNFTIPLMEKAIAAVGAENIATNQIELSPYLQNRKVVAWAKQHGIHITSYMTLAYGKALKDEVIARIAAKHNATPAQVILAWAMGEGYSVIPSSTKRKNLESNLKAQNLQLDAEDKKAIAALDCNDRLVSPEGLAPEWD
total protein half-life in vivo [4]: 4.33 ± 0.17 h | total protein half-life in vivo [5]: 4.57 ± 0.071 h | total protein half-life in vivo [6]: 4.59 ± 0.27 h | total protein half-life in vivo [7]: 4.76 ± 0.34 h | total protein half-life in vivo [8]: 4.78 ± 0.36 h | total protein half-life in vivo [1]: 3.05 ± 0.099 h | total protein half-life in vivo [2]: 5.39 ± 0.67 h | total protein half-life in vivo [3]: 10.7 ± 6.2 h | total protein half-life in vivo [9]: 4.615 ± 0.044 h | total protein half-life in vivo [10]: 8.62 ± 3.3 h | total protein half-life in vivo [11]: 5.21 ± 0.41 h | total protein half-life in vivo [12]: 11.4 ± 0.5 h

MAIPKLQAYALPESHDIPQNKVDWAFEPQRAALLIHDMQDYFVSFWGENCPMMEQVIANIAALRDYCKQHNIPVYYTAQPKEQSDEDRALLNDMWGPGLTRSPEQQKVVDRLTPDADDTVLVKWRYSAFHRSPLEQMLKESGRNQLIITGVYAHIGCMTTATDAFMRDIKPFMVADALADFSRDEHLMSLKYVAGRSGRVVMTEELLPAPIPASKAALREVILPLLDESDEPFDDDNLIDYGLDSVRMMALAARWRKVHGDIDFVMLAKNPTIDAWWKLLSREVK [P0ADI4]
total protein half-life in vivo [4]: 6.06 ± 2.3 h | total protein half-life in vivo [5]: 2.48 h | total protein half-life in vivo [6]: 1.47 h | total protein half-life in vivo [8]: 1.73 ± 0.48 h | total protein half-life in vivo [1]: 2.18 ± 0.18 h | total protein half-life in vivo [2]: 3.32 ± 0.47 h | total protein half-life in vivo [3]: 5.74 ± 0.72 h | total protein half-life in vivo [10]: 4.49 h | total protein half-life in vivo [12]: 5.51 h

MAIRKRFIAGAKCPACQAQDSMAMWRENNIDIVECVKCGHQMREADKEARDHVRKDEQVIGIFHPD [P0ADW8]
total protein half-life in vivo [4]: 4.91 ± 0.73 h | total protein half-life in vivo [5]: 3.52 ± 0.46 h | total protein half-life in vivo [8]: 2.16 ± 0.17 h | total protein half-life in vivo [1]: 1.8 ± 0.47 h | total protein half-life in vivo [2]: 4.08 ± 1.4 h | total protein half-life in vivo [3]: 2.51 h | total protein half-life in vivo [10]: 2.52 h | total protein half-life in vivo [11]: 3.48 h | total protein half-life in vivo [12]: 7.36 ± 1.6 h
